Test results: patent US20240279315A1 (priority 2023, published 2024)
Like-named read-outs stand apart in the source and are kept apart here.

Tests used:
[1] = system: influenza A/Hong Kong/2369/2009 (H1N1pdm) H275Y; set-up: species or system BALB/c mice; conditions: mouse, in vivo
[2] = target: hemagglutinin (HA) of influenza A/Michigan/45/2015 pH1N1 (influenza A virus A/Michigan/45/2015 (H1N1)); assay: cell-based or functional assay
[3] = target: hemagglutinin (HA) of influenza A/Michigan/45/2015 pH1N1 (influenza A virus A/Michigan/45/2015 (H1N1)); assay: cell-based or functional assay; remark: listed apart in the source
[4] = target: hemagglutinin (HA) of influenza A/Guangdong-maonan/2019 H1N1 (influenza A virus A/Guangdong-maonan/2019 (H1N1)); assay: cell-based or functional assay
[5] = target: hemagglutinin (HA) of influenza A/Michigan/45/2015 pH1N1 (influenza A virus A/Michigan/45/2015 (H1N1)); assay: cell-based or functional assay; remark: listed apart in the source
[6] = target: hemagglutinin (HA) of influenza A/Guangdong-maonan/2019 H1N1 (influenza A virus A/Guangdong-maonan/2019 (H1N1)); assay: cell-based or functional assay; remark: listed apart in the source
[7] = target: hemagglutinin (HA) of influenza A/Hong Kong/2671/2019 (Egg) H3N2 (influenza A virus A/Hong Kong/2671/2019 (H3N2)); assay: cell-based or functional assay

Row | Molecule | protection from weight loss [1] | HAI titer [2] [titer] | HAI titer [3] [titer] | HAI titer [4] [titer] | HAI titer ratio of SAB-176 to hIVIG [4] [X] | HAI titer [5] [titer] | HAI titer ratio of SAB-176 to hIVIG [5] [X] | HAI titer (Cell) [6] [titer] | HAI titer (Egg) [6] [titer] | HAI titer ratio of SAB-176 to hIVIG (Cell) [6] [X] | HAI titer ratio of SAB-176 to hIVIG (Egg) [6] [X] | HAI titer of drug product [2] [titer] | HAI titer (Egg) [7] [titer] | HAI titer ratio of SAB-176 to hIVIG (Egg) [7] [X] | HAI titer ratio of SAB-176 to hIVIG [2] [X] | HAI titer of drug product [6] [titer]
1 | CCOC(=O)C1=C[C@@H](OC(CC)CC)[C@H](NC(C)=O)[C@@H](N)C1 [oseltamivir] | did not protect mice from weight loss |  |  |  |  |  |  |  |  |  |  |  |  |  |  | 
2 | SAB-176 (antibody) |  | > 2048 |  |  |  |  |  |  |  |  |  |  |  |  |  | 
3 | SAB-176 Lot 1 (PD1901102QR) (antibody) |  |  | 1280 | 512 | 16 to 32 | 512 | 16 | 512 | 512 | 16 | 16 to 32 | 7680 | 64 | 4 to 8 |  | 
4 | SAB-176 Lot 2 (PD2001010QR) (antibody) |  | 512 | 1280 |  |  |  |  | 512 | 512 | 16 | 16 to 32 | 14300 | 128 | 8 to 16 | 16 | 
5 | SAB-176 Lot 3 (antibody) |  | 512 |  |  |  |  |  | 512 | 512 | 16 | 16 to 32 |  | 256 | 16 to 32 | 16 | 
6 | SAB-176 Lot 4 (PD2102092QR) (antibody) |  | 512 | 1810 | 512 | 16 to 32 |  |  | 512 | 512 | 16 | 16 to 32 |  | 256 | 16 to 32 | 16 | 7680
7 | SAB-176 Lot 5 (PD2203294QR) (antibody) |  |  | 1280 |  |  |  |  |  |  |  |  |  |  |  |  | 
8 | SAB-176 Lot 6 (PD2204315QR) (antibody) |  |  | 905 |  |  |  |  |  |  |  |  |  |  |  |  | 
9 | negative control IgG (antibody) |  | < 1 |  | < 1 |  |  |  | < 1 | < 1 |  |  |  | < 1 |  |  | 
